From patent US20260043817A1 (UNIVERSITY OF TOKYO, published 2026)

Target: T1, HA-tagged Fluc-DM (Fluc-HA-DM) (firefly, UniProt P08659 1-550 = luciferase)
T1 construct: Model misfolded (structurally abnormal) protein, co-expressed in HeLa cells; Derived from the Addgene plasmid FlucDM-HA-GFP11-N1; also called R188Q/R261Q double mutant of firefly luciferase; aggregated mutant luciferase; not shown: HA tag
Experiment: co-immunoprecipitation with anti-FLAG M2 gel from HeLa lysates, immunoblot

- binding result: no binding
B1: FLAG-LONRF2-LonSBm (P5A) (enzyme)
chain: MSPEPVPPPPPPQCPGCDRAEPIAQRLEEGDEAFRAGDYEMAAELFRSMLAGLAQPDRGLCLRLGDALARAGRLPEALGAFRGAARLGALRPEELEELAGGLVRAVGLRDRPLSAENPGGEPEAPGEGGPAPEPRAPRDLLGCPRCRRLLHKPVTLPCGLTVCKRCVEPGPARPQVRRVNVVLSGLLEKCFPAECRLRRLAGQARSLQRQQQPEAALLRCDQALELAPDDNSLLLLRAELYLTMKNYEQALQDASAACQNEPLLIKGHQVKAQALSGLGRSKEVLKEFLYCLALNPECNSVKKEAQKVMCEVLFSATANVHENLTSSIQSRLKAQGHSHMNAQALLEEGDAGSSENSSEKSDMLGNTNSSVLYFILGLHFEEDKKALESILPTAPSAGLKRQFPDDVEDAPDLNAPGKIPKKDLSLQRSPNSETEESQGLSLDVTDFECALCMRLLFEPVTTPCGHTFCLKCLERCLDHAPHCPLCKDKLSELLASRNFNITVLAEELIFRYLPDELSDRKRIYDEEMSELSNLTRDVAIFVCAMAFATVPCALHVFEPRYRLMIRRCMETGTKRFGMCLSAEHAGLSEYGCMLEIKDVRTFADGSSVVDAIGISRFRVLSHRHRDGYNTADIEYLEDEKVEGPEYEELAALHDSVHQQSVSWFASLQDRMKEQILSHFGVMPDREPEPQSNPSGPAWSWWILAVLALERKAQLAILGMTSLKERLLAIRRILVIITRKMNSRQELANARERNN
notes: not shown: FLAG tag
